The values below come from patent US20220403048A1, “BINDING MOLECULES TO ARGINASE II [ARG2]” (Cancer Research Technology Limited, priority 2019, published 2022).

The test system of data set [1] is recombinant cynomolgus monkey trimeric ARG2 enzyme. Description: Direct binding HTRF assay, cynomolgus trimeric ARG2. As to conditions: purified scFv, FIG. 1C. On the technique in general: TR-FRET usually uses a lanthanide donor and a delayed reading to cut background.
Another data set concerns the target T1, ARG2 (Homo sapiens, UniProt P78540).
T1 sequence (P78540 23-354): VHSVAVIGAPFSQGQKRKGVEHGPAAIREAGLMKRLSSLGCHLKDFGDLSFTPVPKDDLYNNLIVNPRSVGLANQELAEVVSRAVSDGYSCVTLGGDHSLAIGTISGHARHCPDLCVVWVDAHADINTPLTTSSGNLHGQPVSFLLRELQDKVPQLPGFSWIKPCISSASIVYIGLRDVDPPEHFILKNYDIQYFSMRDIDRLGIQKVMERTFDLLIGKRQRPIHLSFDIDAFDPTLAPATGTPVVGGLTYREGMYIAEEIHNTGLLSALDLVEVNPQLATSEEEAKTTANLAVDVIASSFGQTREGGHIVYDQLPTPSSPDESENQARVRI
Kind of data set: T cell proliferation assay (BrdU, 72 hours) with exogenous ARG2. Format: cell-based. More on the design: human ARG2 (aa23-354); His10 (C); made in house; host or cells: E. coli BL21 (DE3). As for the experimental part: This assay served to provide in vitro evidence of functional efficacy for each antibody.
Briefly, Leukocyte cones (NHS Blood and Transplant, Watford, UK) underwent Ficoll Plaque (GE, Sweden; Cat: 17-1440-02) gradient separation, PBMC's were extracted and pan T cell population isolated by negative selection using the Human T Cell Enrichment Kit (Stemcell Technologies, France; Cat: 19051) according to the manufacturer's instructions.
40000 cells/well were seeded in complete growth media (RMPI 1640, 5% Human Serum Albumin) into a 96 well clear TC treated microplate (Greiner-Bio One, Germany; Cat: 655180). T Cells were activated by the addition of ImmunoCult CD3/CD28 (Stemcell Technologies, France; Cat: 10971) at a dilution of 1:40 directly into wells and the plate incubated 37° C., 5% CO2 for 45 minutes.
To determine EC50's of test antibodies, a dilution series was created in sterile TBS at 8× the final assay concentration was added to the assay plate containing cells. Plate was incubated for 30 minutes at 37° C., 5% CO2.
ARG2 was added to relevant wells of the plate at a final concentration of 15 μg/ml. The equivalent volume of ARG2 vehicle and test antibody vehicle was added to relevant control wells. […]
Calculated data was expressed as % of control (Equation 3) and graphical plots were constructed using a four parameter fit and EC50's determined using model 205 in XLFit (IDBS, UK). […]

For a further data set, the target named is T2, human ARG2 (trimer) (Homo sapiens, UniProt P78540).
T2 construct: human ARG2 (aa23-354); His10 (C); made in house; host or cells: E. coli BL21 (DE3)
T2 sequence (P78540 23-354): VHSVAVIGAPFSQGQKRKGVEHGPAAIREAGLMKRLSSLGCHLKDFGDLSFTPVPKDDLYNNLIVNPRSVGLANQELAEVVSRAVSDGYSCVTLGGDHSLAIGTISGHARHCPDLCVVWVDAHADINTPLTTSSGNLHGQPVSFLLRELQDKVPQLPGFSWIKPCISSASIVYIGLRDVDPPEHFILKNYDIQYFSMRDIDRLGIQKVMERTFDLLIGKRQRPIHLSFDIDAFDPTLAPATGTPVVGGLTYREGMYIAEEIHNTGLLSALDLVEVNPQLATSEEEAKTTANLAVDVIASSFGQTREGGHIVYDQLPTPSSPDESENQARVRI
Kind of data set: Mechanism of action study (effect on ARG2 Vmax and Km) in trimeric ARG2 enzyme inhibition assay. It counts as biochemical. As to conditions: for Km / Vmax: arginine 2.5-250 mM; for mode of action on ARG2: from effects on Vmax and Km. An excerpt: The mechanism of action of enzyme inhibitors can be broadly divided into competitive, uncompetitive and non-competitive and can be identified as such based on their effects on Km and Vmax.
A competitive inhibitor binds only to free enzyme, often at the active site, causing the affinity of the enzyme for the substrate to be reduced (increased Km) with no change to the maximum enzyme rate (Vmax).
The enzyme's affinity for the substrate is increased (Km is decreased) and the maximum enzyme rate (Vmax) is decreased.
A non-competitive inhibitor binds equally well to free enzyme and enzyme-substrate complex. The enzyme's affinity for the substrate (Km) is unchanged and the maximum enzyme rate (Vmax) is decreased. […]
The mechanism of action of the lead identification clone C0021158 IgG was investigated using the human ARG2 (trimer) enzyme inhibition assay as well as isothermal titration calorimetry.
The enzyme inhibition assay is described in section 1.5 and is a biochemical assay that measures production of urea, the product of L-arginine turnover by ARG2. To investigate the mechanism of action of C0021158 IgG, four point titrations of C0021158 IgG (1000, 100, 30 and 10 nM) were set up in the presence of 11 concentrations of arginine ([…]) and the reaction allowed to proceed for 80, 60, 45, 30, 15 or 5 minutes before the addition of the urea detection reagents O-Phthaldialdehyde and N-(1-Napthyl)ethylenediamine.
Raw data from each separate concentration of C0021158 IgG was plotted as a function of time for each concentration of arginine and fitted using a linear fit (GraphPad Prism) to derive initial velocities (slope values).
Initial velocity data was plotted against arginine concentration for each concentration of C0021158 IgG (FIG. 15A). Each trace was fitted to the Michaelis-Menten model (Y=Vmax*X/(Km+X)) in GraphPad Prism to derive maximum velocity (Vmax) and enzyme/substrate affinity (Km) values at each inhibitor concentration (Table 23).
In the case of C0021158 IgG inhibitor Vmax decreased in the presence of C0021158 IgG inhibitor, ruling out a competitive mode of action and pointing towards an uncompetitive or a non-competitive mode of action. To distinguish non-competitive from uncompetitive modes of action the effect on Km must be assessed. […] This uncharacteristic profile led to poor fitting of the data making it difficult to derive an accurate Km. The lack of accurate Km data means C0021158 IgG cannot be assigned as uncompetitive or non-competitive.

Bounds are passed on as bounds.

recombinant cynomolgus monkey trimeric ARG2 enzyme, sequence (as listed by the source): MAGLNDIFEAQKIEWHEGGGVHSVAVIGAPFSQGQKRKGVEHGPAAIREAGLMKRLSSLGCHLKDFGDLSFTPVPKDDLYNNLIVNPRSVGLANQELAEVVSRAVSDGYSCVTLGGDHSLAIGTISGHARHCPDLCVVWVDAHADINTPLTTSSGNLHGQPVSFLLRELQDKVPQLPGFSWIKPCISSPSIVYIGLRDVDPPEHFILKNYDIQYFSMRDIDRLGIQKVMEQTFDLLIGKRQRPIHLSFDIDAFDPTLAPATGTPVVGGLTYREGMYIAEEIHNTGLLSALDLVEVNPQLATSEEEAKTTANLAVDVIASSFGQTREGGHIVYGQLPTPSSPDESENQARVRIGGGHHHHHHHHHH

B1: C0020065: anti-ARG2 antibody, alternate lead isolation clone, VH SEQ ID NO: 2, VL SEQ ID NO: 7 (antibody, listed as Homo sapiens, V domains shown)
VH: GVNLRESGGGVVQPGRSLRLSCAASGFTFSSYAMHWVRQAPGKGLEWVAVISYDGSNKYYVDSVKGRFTISRDNSKNTLYLQMNSLRAEDTAVYYCARDSSQLWFDYWGRGTLVTVSS
VL: QSVVTQPPSVSGAPGQRVTISCTGSSSNIGTGYDVHWYQQLPGTAPKLLIYGNSNRPSGVPDRFSGSKSGTSASLAITGLQAEDEADYYCQSYDSSLSGSVVFGGGTQLTVL
modifications: C0020065
Regarding B1, the “binding to biotinylated recombinant cynomolgus trimeric ARG2 enzyme” value in data set [1] is “bound”. In addition, the EC50 (as a rule, the concentration at which the effect is half-maximal) in the data set with ARG2 (In Presence of rhARG2) was more than 2 µM. Further, the “Maximum % Proliferation” value in the data set with ARG2 (In Presence of rhARG2, NHLA value at 0.444 mM) amounted to 49%.

B2: C0021158 IgG: anti-ARG2 antibody, VH SEQ ID NO: 282, VL SEQ ID NO: 287; IgG and Fab versions carry these sequences (antibody, listed as Homo sapiens, V domains shown)
VH: EVQLLESGGGLVQPGGSLRLSCAASGFTFRYEVAAWVRQAPGKGLEWVSAISGPIPKGYYADSVKGRFTISRDNSKNTLYLQMNSLRAEDTAVYYCARLRADLGLYMDLWGRGTLVTVSS
VL: QSVLTQPPSVSAAPGQKVTISCSGSSSNIGNHYVSWYQQLPGTAPKLLIYDNSERTAGVPDRFSGSKSGTSATLGITGLQTGDEADYYCGTWDELTSNLVFGGGTKLTVL
modifications: C0021158 IgG
Regarding B2, the Km (usually the substrate concentration at which the rate is half of its maximum) amounted to 1640 µM with human ARG2 (trimer) (10 nM C0021158 IgG) and 590 µM with human ARG2 (trimer) (100 nM C0021158 IgG). Besides, the Vmax is reported as 148.5 AU ms^−1 in the data set with human ARG2 (trimer) (10 nM C0021158 IgG), 89.23 AU ms^−1 in the data set with human ARG2 (trimer) (30 nM C0021158 IgG), 112.8 AU ms^−1 with human ARG2 (trimer) (100 nM C0021158 IgG) and 103.4 AU ms^−1 in the data set with human ARG2 (trimer) (1 μM C0021158 IgG). Further, the “mode of action on ARG2” value is recorded as “not competitive” in the data set with human ARG2 (trimer) and “allosteric inhibitor” with human ARG2 (trimer) (listed as C0021158 fab).
